From patent US20020147170A1 (priority 2000, published 2002) come the findings set out here.

Common to all, as to assay type: cell-based
The target of test [1] is T1, MC-4 receptor (Homo sapiens, UniProt P32245, D146M).
T1 construct: expressed in transfected cells; host or cells: HEK293
As to the kind of experiment: SMS-Luc luciferase reporter assay in HEK293 cells. The procedure:
Briefly, HEK293 cells were cotransfected, as described above, with an expression vector encoding either the wild-type MC-4 receptor or the Asp146Met mutant MC-4 receptor and the reporter construct, SMS-Luc. As a negative control, cells were transfected with SMS-Luc and pcDNA1. Basal and ligand (αMHS) induced activity of the negative control, the wild-type MC-4 receptor, and the Asp146Met mutant MC-4 receptor were measured using the luciferase assay described above.
On the technique in general: A reporter such as luciferase makes a cellular process visible.

For test [2], the target named is T1, MC-4 receptor. Put plainly: Basal level cAMP production. Particulars: FIG. 2. As to the method: As but one example, ligand-dependent activation of the melanocortin-4 (MC-4) receptor is assayed by measuring an increase in cAMP production (Huszar et al., Cell 88:131-141, (1997)).
The test system of another test is rat mu opioid receptor. As to the kind of experiment: CRE-Luc luciferase reporter assay with forskolin stimulation. The settings on record: CRE-Luc luciferase reporter, FIG. 4. The source says: The response element employed in this assay was the cAMP-response element (CRE), which is sensitive to Gαi mediated reductions in intracellular levels of cAMP. Signaling through the rat mu opioid receptor via Gαi inhibits adenylate cyclase, causing a decrease in intracellular cellular cAMP. Therefore, an increase in rat mu opioid receptor signaling induces a decrease in CRE mediated reporter activity.
Mutation induced Gαi-mediated decreases in intracellular cAMP were, prior to the present invention, more often measured by 1) stimulating cells with forskolin, which causes receptor-independent activation of adenylate cyclase and generates an intracellular pool of cAMP; 2) stimulating the cells with ligand; and 3) measuring the ligand-induced, receptor-dependent Gαi-mediated decrease in the intracellular cAMP pool (e.g., using a radioimmunoassay (e.g., New England Nuclear, Boston, Mass.)). […] Specifically, cells transfected with a CRE-Luc reporter construct (Stratagene, La Jolla, Calif.) and an expression vector encoding either a wild-type or a mutant rat mu opioid receptor were stimulated with 0.5 μM or 2 μM forskolin to increase the intracellular pool of cAMP. The basal (and ligand-induced) level of receptor activity was then measured using a standard luciferase assay (see FIG. 4). Coexpression of the receptor of interest with a luciferase reporter gene construct allows one to measure light emission as a readout for basal signaling.
This decrease in activity indicates an increase in the basal level activity of the mutant rat mu opioid receptor, because activation of the rat mu opioid receptor induces a decrease in CRE-mediated reporter activity (FIG. 4, compare 0.5 μM wild-type vs. 0.5 μM mutant and 2 μM wild-type vs. 2 μM mutant).

T1 sequence (P32245 whole entry D146M): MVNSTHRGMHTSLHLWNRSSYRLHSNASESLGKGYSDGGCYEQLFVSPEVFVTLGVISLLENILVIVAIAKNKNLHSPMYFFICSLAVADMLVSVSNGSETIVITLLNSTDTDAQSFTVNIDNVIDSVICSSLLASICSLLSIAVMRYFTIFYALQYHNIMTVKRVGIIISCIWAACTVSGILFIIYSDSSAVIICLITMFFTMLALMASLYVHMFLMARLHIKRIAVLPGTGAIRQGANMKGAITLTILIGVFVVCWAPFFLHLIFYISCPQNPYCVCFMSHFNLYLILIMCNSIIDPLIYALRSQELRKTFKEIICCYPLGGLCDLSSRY

Take “Asp146Met mutant MC-4 receptor: melanocortin-4 receptor with Asp at position 146 (DRY motif) replaced by Met”: the “basal level activity vs wild-type” value with MC-4 receptor [1] is recorded as “higher basal level activity than its wild-type counterpart”. The “constitutive activity by basal level cAMP production” value in the test with MC-4 receptor [2] was “constitutive activity”.
For the compound `C[C@@H](NC(=O)[C@@H](N)Cc1ccc(O)cc1)C(=O)NCC(=O)N(C)[C@@H](Cc1ccccc1)C(=O)NCCO` [DAMGO, [D—Ala^2—MePhe^4, Gly-ol^5]enkephalin], reference compound], the “effect of agonist stimulation of the receptor on forskolin induced activity” value in the test on rat mu opioid receptor is listed as “decrease in forskolin induced activity”.
